According to doi:10.1101/2021.07.08.451529 (bioRxiv, 2021):

Legend:
[1] = molecular target: recombinant C. elegans mitochondrial malate dehydrogenase MDH-2 (F20H11.3), mitochondrial import sequence removed (C. elegans); assay: SEC
[2] = molecular target: the molecule itself; assay: SEC

## recombinant C. elegans mitochondrial malate dehydrogenase MDH-2 (F20H11.3), mitochondrial import sequence removed (enzyme)
[1]
  stoichiometry N: 2

B1: recombinant C. elegans cytoplasmic malate dehydrogenase MDH-1 (F46E10.10) (enzyme)
chain: MSAPLRVLVTGAAGQIGYSIVIRIADGTVFGKEQPVELVLLDVPQCSNILEGVVFELQDCALPTLFSVVAVTDEKSAFTGIDYAFLVGAMPRREGMERKDLLAANVKIFKSQGKALAEYAKPTTKVIVVGNPANTNAFIAAKYAAGKIPAKNFSAMTRLDHNRALAQLALKTGTTIGNVKNVIIWGNHSGTQFPDVTHATVNKNGTETDAYAAVGDNAFLQGPFIATVQKRGGVIIEKRKLSSAMSAAKAACDHIHDWHFGTKAGQFVSMAVPSDGSYGIPQGLIFSFPVTIEGGEWKIVQGLSFDDFAKGKIAATTKELEEERDDALKACDDANIA
[2]
  stoichiometry N: 2
